Values belong to the binder of their own block, whether it stands above or below them.
How the values were obtained:
[1] = molecular target: T1, Human Fcγ receptor IIIa (human, UniProt P08637 17-208, limits assumed); assay: SPR (Biacore T200), His-tagged FcγR captured via anti-His IgG, antibody as analyte 0.04-25 µM, steady-state affinity; clear binding response
T1 construct: Bought protein; also called Fcγ RIIIa
Method: (§1) Binding assays were performed on a Biacore T200 instrument (Cytiva) at 25° C. using assay buffer HBS EP+supplemented with 500 mM NaCl. Fcγ receptors were captured via anti-penta his-tag IgGs (“His capture kit”, Order No. 2895056, Cytiva) covalently amine coupled to a Series S CM5 sensor chip (Cytiva). The amine coupling was carried out according to the manufacturer's instructions using 1-ethyl-3-(3-dimethylaminopropyl) carbodiimide hydrochloride (EDC), N-hydroxysuccinimide (NHS) and ethanolamine HCl, pH 8.5 (“Amine Coupling Kit” BR-1000-50, Cytiva.). Human Fcγ receptor I (R&D Systems, Order No. 1257-FC), Fcγ receptor IIa (R&D Systems, Order No. 1330-CD/F), Fcγ receptor IIb/c (R&D Systems, Order No. 1875-CD), Fcγ receptor IIIa (R&D Systems, Order No. 4325-FC) and Fcγ receptor IIIb (R&D Systems, Order No. 1597-FC) were captured to ˜30 RU.
(§2) Anti-CEACAM6 engineered antibodies were used as analytes in a concentration series from 0.04-25 μM in multi cycle kinetics mode. The sensor surface was regenerated with glycine pH 1.5 after each analyte injection. Obtained sensorgrams were double referenced (subtraction of reference flow cell signal and buffer injection) and were fitted to a 1:1 Langmuir binding model to derive steady-state affinity data using the Biacore T200 Evaluation software.

[2] = molecular target: T2, Human Fcγ receptor IIIb (human, UniProt O75015 20-208, limits assumed); assay: SPR (Biacore T200), His-tagged FcγR captured via anti-His IgG, antibody as analyte, steady-state
T2 construct: Bought protein; also called Fcγ RIIIb
T2 sequence (O75015 20-208 limits assumed): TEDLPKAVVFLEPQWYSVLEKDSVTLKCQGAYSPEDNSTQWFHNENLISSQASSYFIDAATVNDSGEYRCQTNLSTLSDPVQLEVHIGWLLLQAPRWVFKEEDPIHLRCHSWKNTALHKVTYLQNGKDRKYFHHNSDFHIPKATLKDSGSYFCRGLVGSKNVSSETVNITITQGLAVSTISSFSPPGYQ
Method: as §1, §2

[3] = molecular target: T3, Human Fcγ receptor IIb/c (human, UniProt P31994 46-217); assay: as above
T3 construct: Bought protein; also called Fcγ RIIb/c
T3 sequence (looked up): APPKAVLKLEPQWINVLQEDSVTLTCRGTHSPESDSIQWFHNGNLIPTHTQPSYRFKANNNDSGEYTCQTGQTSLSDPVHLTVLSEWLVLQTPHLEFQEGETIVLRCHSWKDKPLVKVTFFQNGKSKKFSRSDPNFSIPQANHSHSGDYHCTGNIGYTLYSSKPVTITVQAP
Method: as §1, §2

[4] = molecular target: T4, Human Fcγ receptor IIa (human, UniProt P12318 36-218, limits assumed); assay: as above
T4 construct: Bought protein; also called Fcγ RIIa
T4 sequence (looked up): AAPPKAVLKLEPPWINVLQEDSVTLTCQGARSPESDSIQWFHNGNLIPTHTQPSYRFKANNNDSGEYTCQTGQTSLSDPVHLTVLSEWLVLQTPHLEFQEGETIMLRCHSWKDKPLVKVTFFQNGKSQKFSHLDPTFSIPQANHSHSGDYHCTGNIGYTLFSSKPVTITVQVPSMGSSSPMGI
Method: as §1, §2

[5] = molecular target: T5, Human Fcγ receptor I (human, UniProt P12314 16-288); assay: SPR (Biacore T200), His-tagged FcγR captured via anti-His IgG, antibody as analyte 0.04-25 µM, steady-state affinity
T5 construct: Bought protein; also called Fcγ RI
T5 sequence (P12314 16-288 limits assumed): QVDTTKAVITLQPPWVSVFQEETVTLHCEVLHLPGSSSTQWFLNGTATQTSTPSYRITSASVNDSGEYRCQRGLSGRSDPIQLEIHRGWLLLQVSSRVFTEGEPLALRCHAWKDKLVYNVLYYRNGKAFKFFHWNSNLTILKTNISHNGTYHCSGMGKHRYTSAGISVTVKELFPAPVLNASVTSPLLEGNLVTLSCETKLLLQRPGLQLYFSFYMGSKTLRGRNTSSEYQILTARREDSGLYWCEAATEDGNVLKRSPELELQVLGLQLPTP
Method: as §1, §2

[6] = molecular target: T2, Human Fcγ receptor IIIb; assay: SPR (Biacore T200), His-tagged FcγR captured via anti-His IgG, antibody as analyte, steady-state affinity
Method: as §1, §2

[7] = molecular target: T5, Human Fcγ receptor I; assay: as above
Method: as §1, §2

[8] = molecular target: T1, Human Fcγ receptor IIIa; assay: as above
Method: as §1, §2

[9] = molecular target: T3, Human Fcγ receptor IIb/c; assay: as above
Method: as §1, §2

[10] = molecular target: T4, Human Fcγ receptor IIa; assay: as above
Method: as §1, §2

[11] = molecular target: T2, Human Fcγ receptor IIIb; assay: SPR (Biacore T200), His-tagged FcγR captured via anti-His IgG, antibody as analyte 0.04-25 µM, steady-state affinity; clear binding response
Method: as §1, §2

[12] = molecular target: T3, Human Fcγ receptor IIb/c; assay: as above
Method: as §1, §2

[13] = molecular target: T1, Human Fcγ receptor IIIa; assay: SPR (Biacore T200), His-tagged FcγR captured via anti-His IgG, antibody as analyte 0.04-25 µM, steady-state affinity
Method: as §1, §2

[14] = molecular target: T4, Human Fcγ receptor IIa; assay: as above
Method: as §1, §2

[15] = molecular target: T5, Human Fcγ receptor I; assay: SPR (Biacore T200), His-tagged FcγR captured via anti-His IgG, antibody as analyte 0.04-25 µM, steady-state affinity; Table 3 experiment (engineered Fc variants), steady-state affinity
Method: as §1, §2

[16] = molecular target: T5, Human Fcγ receptor I; assay: SPR (Biacore T200), His-tagged FcγR captured via anti-His IgG, antibody as analyte, steady-state
Method: as §1, §2

[17] = molecular target: T6, human CEACAM6 (carcinoembryonic antigen-related cell adhesion molecule 6) (human, UniProt P40199 35-320); assay: cell-based or functional assay
T6 sequence: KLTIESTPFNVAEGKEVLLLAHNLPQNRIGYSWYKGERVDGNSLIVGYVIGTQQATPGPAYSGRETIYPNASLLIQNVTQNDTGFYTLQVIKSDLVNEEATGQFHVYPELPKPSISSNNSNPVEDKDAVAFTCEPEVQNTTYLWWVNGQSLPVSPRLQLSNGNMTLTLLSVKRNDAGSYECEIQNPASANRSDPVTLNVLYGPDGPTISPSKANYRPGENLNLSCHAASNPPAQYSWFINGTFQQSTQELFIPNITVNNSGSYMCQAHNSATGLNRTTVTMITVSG

[18] = molecular target: T1, Human Fcγ receptor IIIa; assay: SPR (Biacore T200), His-tagged FcγR captured via anti-His IgG, antibody as analyte, steady-state
Method: as §1, §2

T1 sequence (P08637 17-208 limits assumed): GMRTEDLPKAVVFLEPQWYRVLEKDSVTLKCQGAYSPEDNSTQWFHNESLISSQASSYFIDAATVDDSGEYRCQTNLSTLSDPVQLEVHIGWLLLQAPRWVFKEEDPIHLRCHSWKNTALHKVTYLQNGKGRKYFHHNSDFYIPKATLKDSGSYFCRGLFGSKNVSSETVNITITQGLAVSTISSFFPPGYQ

Kd [1]: > 25 µM
binding result [2]: no binding (tested: 0.04-25 µM)
binding result [3]: no binding (tested: 0.04-25 µM)
binding result [4]: no binding (tested: 0.04-25 µM)
Kd [5]: 3.7 µM
B1: CEACAM6-Human IgG1-LALA (TPP-19919) (antibody)
heavy: not shown
light: DIQLTQSPSFLSASVGDRVTITCKASQNVGTAVAWYQQKPGKAPKLLIYSASNRYTGVPSRFSGSGSGTEFTLTISSLQPEDFATYYCQQYSSYPLTFGGGTKVEIKRTVAAPSVFIFPPSDEQLKSGTASVVCLLNNFYPREAKVQWKVDNALQSGNSQESVTEQDSKDSTYSLSSTLTLSKADYEKHKVYACEVTHQGLSSPVTKSFNRGEC
notes: Human IgG1 with L234A/L235A (EU numbering)

Kd [6]: 7.4 µM
Kd [7]: 0.32 µM
Kd [8]: 1 µM
Kd [9]: 11 µM
Kd [10]: 7.3 µM
Kd [11]: > 25 µM
Kd [12]: > 25 µM
Kd [13]: 4.9 µM
Kd [14]: 21 µM
Kd [15]: 0.016 µM
B2: CEACAM6-Human IgG1 (TPP-5468) (antibody)
heavy: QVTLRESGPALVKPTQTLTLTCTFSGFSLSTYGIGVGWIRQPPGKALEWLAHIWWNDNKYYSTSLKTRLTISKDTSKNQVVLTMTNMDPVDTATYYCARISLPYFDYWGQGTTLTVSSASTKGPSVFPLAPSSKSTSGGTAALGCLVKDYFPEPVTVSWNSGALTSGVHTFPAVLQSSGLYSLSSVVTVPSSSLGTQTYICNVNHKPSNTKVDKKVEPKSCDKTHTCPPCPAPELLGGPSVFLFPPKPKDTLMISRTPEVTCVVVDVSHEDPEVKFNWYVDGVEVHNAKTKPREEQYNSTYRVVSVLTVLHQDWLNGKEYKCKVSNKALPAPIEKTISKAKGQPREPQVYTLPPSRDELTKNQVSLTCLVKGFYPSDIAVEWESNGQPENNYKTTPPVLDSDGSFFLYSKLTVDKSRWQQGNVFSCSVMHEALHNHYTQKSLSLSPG
light: B1 light
notes: expressed in HEK293 cells; also called hIgG1; anti-CEACAM6 human IgG1 format

TILs IFNgamma production (co-culture with HCC2935 tumor cells), EC50 [17]: 0.7 µg/mL
B3: CEACAM6-Human IgG2 (TPP-3310) (antibody)
heavy: QVTLRESGPALVKPTQTLTLTCTFSGFSLSTYGIGVGWIRQPPGKALEWLAHIWWNDNKYYSTSLKTRLTISKDTSKNQVVLTMTNMDPVDTATYYCARISLPYFDYWGQGTTLTVSSASTKGPSVFPLAPCSRSTSESTAALGCLVKDYFPEPVTVSWNSGALTSGVHTFPAVLQSSGLYSLSSVVTVPSSNFGTQTYTCNVDHKPSNTKVDKTVERKCCVECPPCPAPPVAGPSVFLFPPKPKDTLMISRTPEVTCVVVDVSHEDPEVQFNWYVDGVEVHNAKTKPREEQFNSTFRVVSVLTVVHQDWLNGKEYKCKVSNKGLPAPIEKTISKTKGQPREPQVYTLPPSREEMTKNQVSLTCLVKGFYPSDIAVEWESNGQPENNYKTTPPMLDSDGSFFLYSKLTVDKSRWQQGNVFSCSVMHEALHNHYTQKSLSLSPG
light: B1 light
notes: Human IgG2; expressed in HEK293 cells
binding result [2]: no binding (tested: Highest concentration used was 16 µM)
binding result [16]: no binding (tested: Highest concentration used was 16 µM)
binding result [4]: no binding (tested: Highest concentration used was 16 µM)
TILs mediated HCC2935 killing (xCELLigence impedance assay), EC50 [17]: 0.4 µg/mL
survivin specific T cells IFNgamma production (co-culture with HCC2935 tumor cells), EC50 [17]: 0.5 µg/mL

binding result [2]: no binding (tested: 0.04-25 µM)
binding result [18]: no binding (tested: 0.04-25 µM)
binding result [3]: no binding (tested: 0.04-25 µM)
binding result [4]: no binding (tested: 0.04-25 µM)
Kd [5]: 1.2 µM
B4: CEACAM6-Human IgG1-aglyco (TPP-10914) (antibody)
heavy: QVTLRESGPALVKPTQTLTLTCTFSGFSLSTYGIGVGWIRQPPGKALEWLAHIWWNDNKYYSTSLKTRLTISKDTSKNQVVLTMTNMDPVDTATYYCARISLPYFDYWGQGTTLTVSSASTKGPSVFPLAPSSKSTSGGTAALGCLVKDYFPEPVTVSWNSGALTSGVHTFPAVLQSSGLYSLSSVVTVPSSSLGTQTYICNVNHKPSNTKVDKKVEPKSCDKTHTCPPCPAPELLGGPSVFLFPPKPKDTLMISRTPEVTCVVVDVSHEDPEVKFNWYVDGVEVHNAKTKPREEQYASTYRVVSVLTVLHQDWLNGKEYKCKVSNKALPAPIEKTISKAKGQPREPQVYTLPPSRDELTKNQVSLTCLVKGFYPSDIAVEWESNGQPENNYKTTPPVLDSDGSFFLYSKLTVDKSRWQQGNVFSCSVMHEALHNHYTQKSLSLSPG
light: B1 light
notes: Human IgG1 with N297A (EU numbering), aglycosylated

binding result [2]: no binding (tested: 0.04-25 µM)
binding result [16]: no binding (tested: 0.04-25 µM)
binding result [18]: no binding (tested: 0.04-25 µM)
binding result [3]: no binding (tested: 0.04-25 µM)
binding result [4]: no binding (tested: 0.04-25 µM)
TILs IFNgamma production (co-culture with HCC2935 tumor cells), EC50 [17]: 0.5 µg/mL
B5: CEACAM6-Human IgG1-LALAaglyco (TPP-21518) (antibody)
heavy: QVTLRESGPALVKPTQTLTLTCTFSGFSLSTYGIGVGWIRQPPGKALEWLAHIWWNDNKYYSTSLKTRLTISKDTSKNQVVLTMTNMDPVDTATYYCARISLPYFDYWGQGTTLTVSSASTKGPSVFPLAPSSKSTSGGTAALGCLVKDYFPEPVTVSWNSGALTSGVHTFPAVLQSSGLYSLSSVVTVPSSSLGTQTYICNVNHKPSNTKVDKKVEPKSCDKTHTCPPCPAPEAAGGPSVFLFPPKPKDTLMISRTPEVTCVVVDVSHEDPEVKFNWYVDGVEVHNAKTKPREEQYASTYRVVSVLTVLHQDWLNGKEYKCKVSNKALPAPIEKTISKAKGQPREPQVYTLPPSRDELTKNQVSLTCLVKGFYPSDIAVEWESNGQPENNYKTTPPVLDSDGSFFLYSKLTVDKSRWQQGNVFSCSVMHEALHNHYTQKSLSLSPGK
light: B1 light
notes: Human IgG1 with L234A/L235A/N297A (EU numbering); also called IgG1 LALAaglyco anti-CEACAM6 antibody
TILs mediated HCC2935 killing (xCELLigence impedance assay, 100 h), EC50 [17]: 0.43 µg/mL
survivin specific T cells IFNgamma production (co-culture with HCC2935 tumor cells), EC50 [17]: 0.55 µg/mL

Reference: patent US20240368280A1 (DEUTSCHES KREBSFORSCHUNGSZENTRUM STIFTUNG DES FFENTLICHEN …, published 2024)
